Data as given in patent EP2986720B1, “URICASE MUTANTS” (Council of Scientific & Industrial Research, priority 2013, dated 2014).

Assays:
Experiment in all cases: Enzyme kinetic study of uricase (4-AAP/phenol/HRP colour assay, 505 nm)
[1] = target: T1, Kluyveromyces lactis uricase KlUOX (wild type) (SEQ ID NO.1) (Kluyveromyces lactis, UniProt Q6CNP7); assay type: biochemical; conditions: substrate uric acid; pH 7.0, 35°C; Table 5
T1 sequence (Q6CNP7 1-308): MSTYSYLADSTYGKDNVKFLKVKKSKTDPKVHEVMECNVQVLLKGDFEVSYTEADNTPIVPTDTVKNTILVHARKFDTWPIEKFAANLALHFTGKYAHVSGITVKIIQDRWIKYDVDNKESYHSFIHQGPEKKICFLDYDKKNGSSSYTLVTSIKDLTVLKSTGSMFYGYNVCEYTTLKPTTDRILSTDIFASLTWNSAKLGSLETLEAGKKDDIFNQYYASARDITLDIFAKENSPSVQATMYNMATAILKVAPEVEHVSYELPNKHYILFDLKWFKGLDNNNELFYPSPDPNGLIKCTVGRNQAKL
Procedure: (§1) Enzymatic assay of uricase: Substrate mixture contains • a. 2.2 ml of 2 mM Uric acid • b. 0.15 ml of 60 mM 4-Aminoantipyrine (4-AAP) • c. 0.15 ml of 1.5% Phenol • d. 0.15 ml of 20 U/ml Horseradish peroxidase (HRP) • e. 0.1 M respective buffer to make up to 3 ml • a. Uricase added to the above mixture and incubated at 25°C for 20 min. The colour is measured at 505 nm (Chen, Wang et al. 2008). • b. The reaction mix was set for 300 µl rather than 3 ml for convenient measuring in BiotekPowerwave X Elisa plate reader. The amounts of the solutions added in the assay mix were calculated accordingly for 300 µl.
(§2) The kinetics of the uricases was studied to evaluate the efficiency of the enzymes. The kinetic parameters of the uricases of all the species were determined at their respective optimum pH and optimum temperatures. The substrate (uric acid) was added in increasing concentrations ranging from 10 to 600 µM (10, 20, 40, 80, 100, 200, 300, 400, 500, and 600) in triplicates. The assay reagents for the kinetic studies were added in 96 well plates in triplicates in the buffer of pH 7.0 and incubated at 35°C. Equal amounts of enzyme were added and immediately readings were taken at 505 nm. Around 30 readings were taken at the interval of 1min. The readings at a particular time point were taken for further steady state kinetic study of uricases. The KM and Vmax values were determined from Michaelis-Menten saturation curve by the non-linear curve fit (ORIGIN 7.5). kcat and kcat/KM values were also calculated (table 5). Table 5: Kinetic properties of the uricases of this invention

[2] = target: T2, Kluyveromyces lactis uricase variant KI F167W, Mutant 2 (SEQ ID NO.3) (Kluyveromyces lactis, UniProt Q6CNP7, F167W); assay type: biochemical; conditions: substrate uric acid; pH 7.0, 35°C; Table 5
T2 sequence (Q6CNP7 1-308 F167W): T1 sequence (Q6CNP7 1-308)
Procedure: as §1, §2

[3] = target: T3, Kluyveromyces lactis uricase variant KI T62S, Mutant 1 (SEQ ID NO.2) (Kluyveromyces lactis, UniProt Q6CNP7, T62S); assay type: biochemical; conditions: substrate uric acid; pH 7.0, 35°C; Table 5
T3 sequence (Q6CNP7 1-308 T62S): T1 sequence (Q6CNP7 1-308)
Procedure: as §1, §2

[4] = tested on: O=c1[nH]c(=O)c2[nH]c(=O)[nH]c2[nH]1; assay type: biochemical, Aspergillus flavus; conditions: other: substrate uric acid 10 to 600 µM; respective optimum pH and temperature; Table 1; pH 7.0
Procedure: as §1, §2

[5] = tested on: O=c1[nH]c(=O)c2[nH]c(=O)[nH]c2[nH]1; assay type: biochemical, Kluyveromyces lactis; conditions: other: substrate uric acid 10 to 600 µM, pH 7.0, 35°C, Table 1
Procedure: as §1, §2

[6] = substrate: O=c1[nH]c(=O)c2[nH]c(=O)[nH]c2[nH]1; assay type: biochemical, A. globiformis; conditions: other: substrate uric acid 10 to 600 µM; respective optimum pH and temperature; Table 1; pH 7.0
Procedure: as §1, §2

[7] = substrate: O=c1[nH]c(=O)c2[nH]c(=O)[nH]c2[nH]1; assay type: biochemical, Kluyveromyces lactis; conditions: other: substrate uric acid 10 to 600 µM, pH 7.0, 35°C, Table 1; remark: listed apart in the source
Procedure: as §1, §2

[8] = substrate: O=c1[nH]c(=O)c2[nH]c(=O)[nH]c2[nH]1; assay type: biochemical, Candida utilis; conditions: other: substrate uric acid 10 to 600 µM; respective optimum pH and temperature; Table 1; pH 7.0
Procedure: as §1, §2

O=c1[nH]c(=O)c2[nH]c(=O)[nH]c2[nH]1 [uric acid]
Kcat [1]: 12.16 min⁻¹ | Kcat [2]: 14.5 min⁻¹ | Kcat [3]: 14.32 min⁻¹

A. flavus uricase (Aspergillus flavus)
Km [4]: 96.2 µM | kcat [4]: 4.3 min⁻¹ | kcat/Km [4]: 0.044 µM⁻¹ min⁻¹

Kluyveromyces lactis uricase variant KI F167W, Mutant 2 (SEQ ID NO.3) (Kluyveromyces lactis NRRL Y-1140; F167W)
Km [5]: 28.07 µM | kcat [5]: 14.5 min⁻¹ | kcat/Km [5]: 0.516 µM⁻¹ min⁻¹

Kluyveromyces lactis uricase variant KI T62S, Mutant 1 (SEQ ID NO.2) (Kluyveromyces lactis NRRL Y-1140; T62S)
Km [5]: 16.2 µM | kcat [5]: 14.32 min⁻¹ | kcat/Km [5]: 0.88 µM⁻¹ min⁻¹

B1: A. globiformis uricase (Arthrobacter globiformis) (protein)
chain: MTATAETSTGTKVVLGQNQYGKAEVRLVKVTRNTARHEIQDLNVTSQLRGDFEAAHTAGDNAHVVATDTQKNTVYAFARDGFATTEEFLLRLGKHFTEGFDWVTGGRWAAQQFFWDRINDHDHAFSRNKSEVRTAVLEISGSEQAIVAGIEGLTVLKSTGSEFHGFPRDKYTTLQETTDRILATDVSARWRYNTVEVDFDAVYASVRGLLLKAFAETHSLALQQTMYEMGRAVIETHPEIDEIKMSLPNKHHFLVDLQPFGQDNPNEVFYAADRPYGLIEATIQREGSRADHPIWSNIAGFC
Km [6]: 215 ± 2.16 µM | kcat [6]: 0.87 min⁻¹ | kcat/Km [6]: 0.004 µM⁻¹ min⁻¹

B2: Kluyveromyces lactis uricase KlUOX (wild type) (SEQ ID NO.1) (Kluyveromyces lactis NRRL Y-1140) (protein)
chain: T1 sequence (Q6CNP7 1-308)
Km [7]: 40.8 µM | kcat [7]: 12.16 min⁻¹ | kcat/Km [7]: 0.29 µM⁻¹ min⁻¹

B3: C. utilis uricase (Williopsis jadinii) (protein)
chain: MSTTLSSSTYGKDNVKFLKVKKDPQNPKKQEVMEATVTCLLEGGFDTSYTEADNSSIVPTDTVKNTILVLAKTTEIWPIERFAAKLATHFVEKYSHVSGVSVKIVQDRWVKYAVDGKPHDHSFIHEGGEKRITDLYYKRSGDYKLSSAIKDLTVLKSTGSMFYGYNKCDFTTLQPTTDRILSTDVDATWVWDNKKIGSVYDIAKAADKGIFDNVYNQAREITLTTFALENSPSVQATMFNMATQILEKACSVYSVSYALPNKHYFLIDLKWKGLENDNELFYPSPHPNGLIKCTVVRKEKTKL
Km [8]: 38.5 ± 5.16 µM | kcat [8]: 12.16 min⁻¹ | kcat/Km [8]: 0.315 µM⁻¹ min⁻¹
